Experimental data: publication PMC10397247
Each block holds one binder with its values, some of them ahead of it.

Legend:
APC5531-AA = target: T1, APC5531-AA; test: two-hybrid library CCmax; settings: mean of both orientations;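 note: natural log of median RNA to DNA barcode read ratio; higher means stronger binding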
T1 chain: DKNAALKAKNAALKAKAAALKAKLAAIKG

APC7524-AA = target: T2, APC7524-AA; test: two-hybrid library CCmax; settings: mean of both orientations;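 note: natural log of median RNA to DNA barcode read ratio; higher means stronger binding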
T2 chain: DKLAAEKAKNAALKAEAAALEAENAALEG

APC2811-AA = target: T3, APC2811-AA; test: two-hybrid library CCmax;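 note: natural log of median RNA to DNA barcode read ratio; higher means stronger binding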
T3 chain: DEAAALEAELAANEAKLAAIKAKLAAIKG

APC9291-AA = target: T4, APC9291-AA; test: two-hybrid library CCmax; settings: mean of both orientations;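 note: natural log of median RNA to DNA barcode read ratio; higher means stronger binding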
T4 chain: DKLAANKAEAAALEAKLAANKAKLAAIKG

APC8401-AA = target: T5, APC8401-AA; test: two-hybrid library CCmax; settings: mean of both orientations;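 note: natural log of median RNA to DNA barcode read ratio; higher means stronger binding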
T5 chain: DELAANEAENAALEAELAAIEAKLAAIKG

APC6088-AA = target: T6, APC6088-AA; test: two-hybrid library CCmax; settings: mean of both orientations;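 note: natural log of median RNA to DNA barcode read ratio; higher means stronger binding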
T6 chain: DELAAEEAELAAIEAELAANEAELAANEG

APC5009-AA = target: T7, APC5009-AA; test: two-hybrid library CCmax; settings: mean of both orientations
T7 chain: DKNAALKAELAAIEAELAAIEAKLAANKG

APC4336-AA = target: T8, APC4336-AA; test: two-hybrid library CCmax; settings: mean of both orientations
T8 chain: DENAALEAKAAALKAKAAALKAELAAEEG

APC2981-AA = target: T9, APC2981-AA; test: two-hybrid library CCmax; settings: mean of both orientations
T9 chain: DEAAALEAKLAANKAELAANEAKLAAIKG

APC3881-AA = target: T10, APC3881-AA; test: two-hybrid library CCmax; settings: mean of both orientations
T10 chain: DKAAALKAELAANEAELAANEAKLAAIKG

APC9182-AA = target: T11, APC9182-AA; test: two-hybrid library CCmax; settings: mean of both orientations
T11 chain: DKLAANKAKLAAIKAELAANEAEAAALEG

APC9806-AA = target: T12, APC9806-AA; test: two-hybrid library CCmax; settings: mean of both orientations
T12 chain: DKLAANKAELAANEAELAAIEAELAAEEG

APC3265-AA = target: T13, APC3265-AA; test: two-hybrid library CCmax; settings: mean of both orientations
T13 chain: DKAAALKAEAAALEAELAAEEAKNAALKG

APC3323-AA = target: T14, APC3323-AA; test: two-hybrid library CCmax; settings: mean of both orientations
T14 chain: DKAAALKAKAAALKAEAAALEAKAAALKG

APC3354-AA = target: T15, APC3354-AA; test: two-hybrid library CCmax; settings: mean of both orientations
T15 chain: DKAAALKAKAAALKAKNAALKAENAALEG

APC9141-AA = target: T16, APC9141-AA; test: two-hybrid library CCmax; settings: mean of both orientations
T16 chain: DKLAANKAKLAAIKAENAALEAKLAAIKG

APC8516-AA = target: T17, APC8516-AA; test: two-hybrid library CCmax; settings: mean of both orientations
T17 chain: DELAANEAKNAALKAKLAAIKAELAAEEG

APC4100-AA = target: T18, APC4100-AA; test: two-hybrid library CCmax; settings: mean of both orientations
T18 chain: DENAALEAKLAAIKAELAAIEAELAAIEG

APC542-AA = target: T19, APC542-AA; test: two-hybrid library CCmax; settings: mean of both orientations
T19 chain: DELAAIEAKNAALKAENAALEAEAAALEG

P7 = target: T20, P7; test: two-hybrid library CC1; settings: mean of both orientations
T20 chain: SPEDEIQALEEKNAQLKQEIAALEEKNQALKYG

P9 = target: T21, P9; test: two-hybrid library CC1; settings: mean of both orientations
T21 chain: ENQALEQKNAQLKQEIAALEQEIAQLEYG

P6SC1 = target: T22, P6SC1; test: two-hybrid library CC1; settings: mean of both orientations
T22 chain: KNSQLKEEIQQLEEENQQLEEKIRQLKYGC

P8mS = target: T23, P8mS; test: two-hybrid library CC1; settings: mean of both orientations
T23 chain: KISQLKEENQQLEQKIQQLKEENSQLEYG

P7mS = target: T24, P7mS; test: two-hybrid library CC1; settings: mean of both orientations
T24 chain: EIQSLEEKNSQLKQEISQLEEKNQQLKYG

P5mS = target: T25, P5mS; test: two-hybrid library CC1
T25 chain: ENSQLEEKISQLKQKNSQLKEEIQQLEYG

P8 = target: T26, P8; test: two-hybrid library CC1; settings: mean of both orientations
T26 chain: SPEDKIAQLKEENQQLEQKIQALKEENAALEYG

P6SC2 = target: T27, P6SC2; test: two-hybrid library CC1; settings: mean of both orientations
T27 chain: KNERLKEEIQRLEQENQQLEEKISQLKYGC

P6mS = target: T28, P6mS; test: two-hybrid library CC1; settings: mean of both orientations
T28 chain: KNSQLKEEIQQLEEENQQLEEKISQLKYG

P6 = target: T29, P6; test: two-hybrid library CC1; settings: mean of both orientations
T29 chain: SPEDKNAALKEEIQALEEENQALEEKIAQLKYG

interaction score (APC5531-AA): -1.88
interaction score (APC7524-AA): -1.75
interaction score (APC2811-AA): -0.415
interaction score (APC9291-AA): -1.78
interaction score (APC8401-AA): -1.58
interaction score (APC6088-AA): -1.51
interaction score (APC5009-AA): -0.812
interaction score (APC4336-AA): -1.61
interaction score (APC2981-AA): -1.57
interaction score (APC3881-AA): -1.68
interaction score (APC9182-AA): -1.35
interaction score (APC9806-AA): -1.74
interaction score (APC3265-AA): -1.3
interaction score (APC3323-AA): -1.68
interaction score (APC3354-AA): -1.67
interaction score (APC9141-AA): -1.29
interaction score (APC8516-AA): -1.65
interaction score (APC4100-AA): 0.341
interaction score (APC542-AA): -1.59
Binder: DEAAALEAELAANEAKLAAIKAKLAAIKG [APC2811-AA]

Binder: ENSQLEEKISQLKQKNSQLKEEIQQLEYG [P5mS]
interaction score (P7): -2.73
interaction score (P9): -2.67
interaction score (P6SC1): 0.104
interaction score (P8mS): -2.74
interaction score (P7mS): -2.67
interaction score (P5mS): -3.02
interaction score (P8): -2.02
interaction score (P6SC2): 0.207
interaction score (P6mS): -0.205
interaction score (P6): 0.124
